Paper PMC10728100, “Structural and biochemical investigations of a HEAT-repeat protein involved in the cytosolic iron-sulfur cluster assembly pathway” (Communications Biology, 2023)
Several values for one entry are separate records, joined by “and”; a condition that tells them apart may be missing. Equal values may be shown once.

T1: SUMO-tagged ScMet18 I973A (S. cerevisiae, UniProt P40469 1-1032, I973A)
T1 construct: Met18, S. cerevisiae; substitution in HEAT-repeat 22; source: E. coli Rosetta2(DE3), purified (Ni-NTA, gel filtration); not shown: His, N-terminal, kept; SUMO, N-terminal, kept
T1 sequence: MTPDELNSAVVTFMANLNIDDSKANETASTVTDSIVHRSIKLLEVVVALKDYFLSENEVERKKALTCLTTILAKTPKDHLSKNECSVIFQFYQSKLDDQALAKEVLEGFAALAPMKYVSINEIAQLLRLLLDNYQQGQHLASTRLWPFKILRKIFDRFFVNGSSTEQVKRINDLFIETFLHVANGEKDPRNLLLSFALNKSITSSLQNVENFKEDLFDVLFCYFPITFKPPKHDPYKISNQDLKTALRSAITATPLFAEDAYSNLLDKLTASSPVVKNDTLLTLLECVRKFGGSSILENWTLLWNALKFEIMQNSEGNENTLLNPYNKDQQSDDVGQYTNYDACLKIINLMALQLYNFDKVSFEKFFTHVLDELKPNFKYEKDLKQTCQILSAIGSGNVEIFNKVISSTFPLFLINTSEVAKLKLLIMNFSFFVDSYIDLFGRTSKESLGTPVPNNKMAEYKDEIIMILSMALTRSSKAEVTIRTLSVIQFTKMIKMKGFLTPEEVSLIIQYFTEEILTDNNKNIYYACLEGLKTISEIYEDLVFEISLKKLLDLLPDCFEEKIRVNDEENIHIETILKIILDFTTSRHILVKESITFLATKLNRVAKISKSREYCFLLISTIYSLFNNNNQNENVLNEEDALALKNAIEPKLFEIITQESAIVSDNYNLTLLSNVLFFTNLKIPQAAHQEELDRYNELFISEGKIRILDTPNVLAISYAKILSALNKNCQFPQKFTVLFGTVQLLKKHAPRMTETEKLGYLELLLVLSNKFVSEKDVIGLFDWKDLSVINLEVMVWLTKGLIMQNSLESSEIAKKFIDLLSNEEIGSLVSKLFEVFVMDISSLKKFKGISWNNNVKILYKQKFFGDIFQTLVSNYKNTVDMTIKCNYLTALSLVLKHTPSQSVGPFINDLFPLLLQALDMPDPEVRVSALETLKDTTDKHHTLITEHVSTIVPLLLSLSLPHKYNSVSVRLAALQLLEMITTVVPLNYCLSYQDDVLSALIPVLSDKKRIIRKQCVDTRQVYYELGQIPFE

B1: SUMO-tagged ScMet18, wild type (N-terminal His-tag followed by SUMO solubility tag) (natural protein, S. cerevisiae)
chain: MTPDELNSAVVTFMANLNIDDSKANETASTVTDSIVHRSIKLLEVVVALKDYFLSENEVERKKALTCLTTILAKTPKDHLSKNECSVIFQFYQSKLDDQALAKEVLEGFAALAPMKYVSINEIAQLLRLLLDNYQQGQHLASTRLWPFKILRKIFDRFFVNGSSTEQVKRINDLFIETFLHVANGEKDPRNLLLSFALNKSITSSLQNVENFKEDLFDVLFCYFPITFKPPKHDPYKISNQDLKTALRSAITATPLFAEDAYSNLLDKLTASSPVVKNDTLLTLLECVRKFGGSSILENWTLLWNALKFEIMQNSEGNENTLLNPYNKDQQSDDVGQYTNYDACLKIINLMALQLYNFDKVSFEKFFTHVLDELKPNFKYEKDLKQTCQILSAIGSGNVEIFNKVISSTFPLFLINTSEVAKLKLLIMNFSFFVDSYIDLFGRTSKESLGTPVPNNKMAEYKDEIIMILSMALTRSSKAEVTIRTLSVIQFTKMIKMKGFLTPEEVSLIIQYFTEEILTDNNKNIYYACLEGLKTISEIYEDLVFEISLKKLLDLLPDCFEEKIRVNDEENIHIETILKIILDFTTSRHILVKESITFLATKLNRVAKISKSREYCFLLISTIYSLFNNNNQNENVLNEEDALALKNAIEPKLFEIITQESAIVSDNYNLTLLSNVLFFTNLKIPQAAHQEELDRYNELFISEGKIRILDTPNVLAISYAKILSALNKNCQFPQKFTVLFGTVQLLKKHAPRMTETEKLGYLELLLVLSNKFVSEKDVIGLFDWKDLSVINLEVMVWLTKGLIMQNSLESSEIAKKFIDLLSNEEIGSLVSKLFEVFVMDISSLKKFKGISWNNNVKILYKQKFFGDIFQTLVSNYKNTVDMTIKCNYLTALSLVLKHTPSQSVGPFINDLFPLLLQALDMPDPEVRVSALETLKDTTDKHHTLITEHVSTIVPLLLSLSLPHKYNSVSVRLIALQLLEMITTVVPLNYCLSYQDDVLSALIPVLSDKKRIIRKQCVDTRQVYYELGQIPFE
notes: Met18, S. cerevisiae; Met18 gene amplified from genomic DNA; 131 kDa with the tag; also called SUMOMet18; SUMOScMet18; source: E. coli Rosetta2(DE3), purified (Ni-NTA, gel filtration); not shown: His, N-terminal, kept; SUMO, N-terminal, kept

Assays:
[1] = biological target: T1, SUMO-tagged ScMet18 I973A; assay: pull-down; as the ScCia2 bait pull-down, but ScLeu1 and ScCia1 included in addition to the SUMO-tagged ScMet18 variant and the strep-tagged ScCia2 bait; Strep-Tactin XT resin; SDS-PAGE; conditions: both partners purified
[2] = biological target: B1; assay: as above; conditions: both partners purified
[3] = biological target: the molecule itself; assay: cryo-EM structure; chameleon-prepared grids; untagged ScMet18 at 2 µg/µL (15 µM) in 50 mM Tris pH 8.0, 100 mM NaCl, 1% glycerol, 1 mM BME; 24 °C
[4] = biological target: the molecule itself; assay: cryo-EM structure; Vitrobot-plunged grids; untagged ScMet18 at 1.2 mg/mL (9 µM) in 50 mM HEPES pH 7.5, 100 mM NaCl, 1% glycerol, 1 mM BME, 33 mM sodium acetate; 10 °C; D3 symmetry
[5] = biological target: the molecule itself; assay: mass photometry; ScMet18 alone (SUMO-tagged or untagged) at 0.050 µM in 50 mM Tris pH 8.0, 100 mM NaCl, 1% glycerol, 5 mM BME

binding result [1] | binding result [2] | Binder | stoichiometry N [3] | stoichiometry N [4] | stoichiometry N [5]
binds | binds | ScLeu1 with N-terminal His tag (natural protein, S. cerevisiae, UniProt P07264 1-779, looked up, Leu1, isopropylmalate isomerase, S. cerevisiae; also called HisLeu1; source: purified) MVYTPSKGPRTLYDKVFDAHVVHQDENGSFLLYIDRHLVHEVTSPQAFEGLENAGRKVRRVDCTLATVDHNIPTESRKNFKSLDTFIKQTDSRLQVKTLENNVKQFGVPYFGMSDARQGIVHTIGPEEGFTLPGTTVVCGDSHTSTHGAFGSLAFGIGTSEVEHVLATQTIIQAKSKNMRITVNGKLSPGITSKDLILYIIGLIGTAGGTGCVIEFAGEAIEALSMEARMSMCNMAIEAGARAGMIKPDETTFQYTKGRPLAPKGAEWEKAVAYWKTLKTDEGAKFDHEINIEAVDVIPTITWGTSPQDALPITGSVPDPKNVTDPIKKSGMERALAYMGLEPNTPLKSIKVDKVFIGSCTNGRIEDLRSAAAVVRGQKLASNIKLAMVVPGSGLVKKQAEAEGLDKIFQEAGFEWREAGCSICLGMNPDILDAYERCASTSNRNFEGRQGALSRTHLMSPAMAAAAGIAGHFVDIREFEYKDQDQSSPKVEVTSEDEKELESAAYDHAEPVQPEDAPQDIANDELKDIPVKSDDTPAKPSSSGMKPFLTLEGISAPLDKANVDTDAIIPKQFLKTIKRTGLKKGLFYEWRFRKDDQGKDQETDFVLNVEPWREAEILVVTGDNFGCGSSREHAPWALKDFGIKSIIAPSYGDIFYNNSFKNGLLPIRLDQQIIIDKLIPIANKGGKLCVDLPNQKILDSDGNVLVDHFEIEPFRKHCLVNGLDDIGITLQKEEYISRYEALRREKYSFLEGGSKLLKFDNVPKRKAVTTTFDKVHQDW |  |  | 
 |  | untagged ScMet18 (S. cerevisiae Met18, His-SUMO tag removed by SUMO protease) (natural protein, Met18 (MMS19 in humans), S. cerevisiae; Met18 gene amplified from genomic DNA; 118 kDa; model holds residues 9-225, 242-314 and 338-1029; Mixture of monomers, dimers, tetramers and hexamers in solution; hexamer and tetramer by cryo-EM; also called SUMO-cleaved ScMet18; source: E. coli Rosetta2(DE3), purified (Ni-NTA, gel filtration; tag cut with SUMO protease, Ni-NTA flow through); not shown: …) MTPDELNSAVVTFMANLNIDDSKANETASTVTDSIVHRSIKLLEVVVALKDYFLSENEVERKKALTCLTTILAKTPKDHLSKNECSVIFQFYQSKLDDQALAKEVLEGFAALAPMKYVSINEIAQLLRLLLDNYQQGQHLASTRLWPFKILRKIFDRFFVNGSSTEQVKRINDLFIETFLHVANGEKDPRNLLLSFALNKSITSSLQNVENFKEDLFDVLFCYFPITFKPPKHDPYKISNQDLKTALRSAITATPLFAEDAYSNLLDKLTASSPVVKNDTLLTLLECVRKFGGSSILENWTLLWNALKFEIMQNSEGNENTLLNPYNKDQQSDDVGQYTNYDACLKIINLMALQLYNFDKVSFEKFFTHVLDELKPNFKYEKDLKQTCQILSAIGSGNVEIFNKVISSTFPLFLINTSEVAKLKLLIMNFSFFVDSYIDLFGRTSKESLGTPVPNNKMAEYKDEIIMILSMALTRSSKAEVTIRTLSVIQFTKMIKMKGFLTPEEVSLIIQYFTEEILTDNNKNIYYACLEGLKTISEIYEDLVFEISLKKLLDLLPDCFEEKIRVNDEENIHIETILKIILDFTTSRHILVKESITFLATKLNRVAKISKSREYCFLLISTIYSLFNNNNQNENVLNEEDALALKNAIEPKLFEIITQESAIVSDNYNLTLLSNVLFFTNLKIPQAAHQEELDRYNELFISEGKIRILDTPNVLAISYAKILSALNKNCQFPQKFTVLFGTVQLLKKHAPRMTETEKLGYLELLLVLSNKFVSEKDVIGLFDWKDLSVINLEVMVWLTKGLIMQNSLESSEIAKKFIDLLSNEEIGSLVSKLFEVFVMDISSLKKFKGISWNNNVKILYKQKFFGDIFQTLVSNYKNTVDMTIKCNYLTALSLVLKHTPSQSVGPFINDLFPLLLQALDMPDPEVRVSALETLKDTTDKHHTLITEHVSTIVPLLLSLSLPHKYNSVSVRLIALQLLEMITTVVPLNYCLSYQDDVLSALIPVLSDKKRIIRKQCVDTRQVYYELGQIPFE | 6 and 4 | 6 | 2
 |  | B1 |  |  | 2 and 4 and 6
